From publication PMC5264606, “Clusterin: full-length protein and one of its chains show opposing effects on cellular lipid accumulation” (Scientific Reports, 2017)

Legend:
[1] = target: the molecule itself; experiment: AUC; sedimentation velocity; 0.5 mg/ml in 20 mM phosphate buffer pH 7.4, 18,000 rpm, 20 °C, An50Ti rotor; SEDFIT (Lamm equation); self-association into large oligomers
[2] = target: the molecule itself; experiment: dynamic light scattering; 1 mg/ml in PBS pH 7.4, filtered through 0.22 μm, 25 °C; hydrodynamic radius; self-association

Row | Protein | stoichiometry N [1] | binding result [2]
1 | α-chain of human clusterin (α-Clu), recombinant (domain or fragment, UniProt P10909 23-227, looked up, The printed primers encode M-DQTVSD... at the start and ...RIVR-stop at the end; Printed theoretical subunit mass: 24 kDa; The NdeI site of the forward primer adds an initiator Met before D23; Not glycosylated (bacterial). cDNA came from IMR32 human neuroblastoma cells; also called α-clusterin) DQTVSDNELQEMSNQGSKYVNKEIQNAVNGVKQIKTLIEKTNEERKTLLSNLEEAKKKKEDALNETRESETKLKELPGVCNETMMALWEECKPCLKQTCMKFYARVCRSGSGLVGRQLEEFLNQSSPFYFWMNGDRIDSLLENDRQQTHMLDVMQDHFSRASSIIDELFQDRFFTREPQDTYHYLPFSLPHRRPHFFFPKSRIVR | ~60 subunits per oligomer | 
2 | β-chain of human clusterin (β-Clu), recombinant (domain or fragment, UniProt P10909 228-449, looked up, The printed primers encode M-SLMPFSP... at the start and ...HREE-stop at the end; The NdeI site of the forward primer adds an initiator Met before S228; Not glycosylated (bacterial). cDNA came from IMR32 human neuroblastoma cells; also called β-clusterin) SLMPFSPYEPLNFHAMFQPFLEMIHEAQQAMDIHFHSPAFQHPPTEFIREGDDDRTVCREIRHNSTGCLRMKDQCDKCREILSVDCSTNNPSQAKLRRELDESLQVAERLTRKYNELLKSYQWKMLNTSSLLEQLNEQFNWVSRLANLTQGEDQYYLRVTTVASHTSDSDVPSGVTEVVVKLFDSDPITVTVPVEVSRKNPKFMETVAEKALQEYRKKHREE |  | binds
